The target of series [1] is T1, PaDHDPR (Paenisporosarcina sp. TG-14, UniProt A0A3B6UER2).
T1 construct: gene dapB; full length, residues 1-264; pET-28a N-terminal His tag removed by thrombin; expressed in E. coli BL21(DE3); homotetramer
T1 sequence (A0A3B6UER2 2-265): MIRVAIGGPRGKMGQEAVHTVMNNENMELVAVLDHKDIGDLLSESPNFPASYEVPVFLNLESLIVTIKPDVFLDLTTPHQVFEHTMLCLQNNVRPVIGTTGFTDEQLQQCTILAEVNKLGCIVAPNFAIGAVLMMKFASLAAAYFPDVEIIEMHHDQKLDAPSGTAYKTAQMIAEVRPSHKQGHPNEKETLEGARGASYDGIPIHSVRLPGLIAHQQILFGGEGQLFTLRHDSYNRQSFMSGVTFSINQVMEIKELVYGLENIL
Description: isothermal titration calorimetry, one-site model. The series is classed as binding.

For series [2], the target named is T2, PaDHDPR (Paenisporosarcina sp. TG-14, UniProt A0A3B6UER2, K37A).
T2 construct: gene dapB; full length, residues 1-264; pET-28a N-terminal His tag removed by thrombin; expressed in E. coli BL21(DE3); homotetramer
Description: isothermal titration calorimetry, one-site model. The series is classed as binding.

In series [3] the target is T3, PaDHDPR (Paenisporosarcina sp. TG-14, UniProt A0A3B6UER2, H36A).
T3 construct: gene dapB; full length, residues 1-264; pET-28a N-terminal His tag removed by thrombin; expressed in E. coli BL21(DE3); homotetramer
Description: isothermal titration calorimetry, one-site model. It is filed as binding. The note with it: 50 mM Tris-HCl, 150 mM NaCl, pH 8.0, 25 °C.

Series [4] deals with T1, PaDHDPR. Description: isothermal titration calorimetry. It is filed as binding. As to conditions: 50 mM Tris-HCl, 150 mM NaCl, pH 8.0, 25 °C; 80 μM protein, 1 mM ligand.
Series [5] has as its target Dihydrodipicolinate reductase from Paenisporosarcina sp. TG-14 (Paenisporosarcina sp. TG-14). Description: AUC; analytical centrifugation of purified PaDHDPR; conditions not told in the main text.
The target in series [6] is T1, PaDHDPR. Description: X-ray crystallography, co-crystals, […] Å (binary) and […] Å (with NADPH). The series is classed as binding. As to conditions: 10 mM DPA; substrate site of the C-terminal domain; competitive inhibitor.
Substrate in series [7]: NC(=O)C1=CN([C@@H]2O[C@H](COP(=O)(O)OP(=O)(O)OC[C@H]3O[C@@H](n4cnc5c(N)ncnc54)[C@H](OP(=O)(O)O)[C@@H]3O)[C@@H](O)[C@H]2O)C=CC1
Description: purified protein. The note with it: NADPH varied, DHDP generated from ASA and pyruvate, 100 mM HEPES pH 7.5, 25 °C, varied: cofactor. It is filed as biochemical, Paenisporosarcina sp. TG-14.

Substrate in series [8]: NC(=O)C1=CN([C@@H]2O[C@H](COP(=O)(O)OP(=O)(O)OC[C@H]3O[C@@H](n4cnc5c(N)ncnc54)[C@H](O)[C@@H]3O)[C@@H](O)[C@H]2O)C=CC1
Description: purified protein. The note with it: NADH varied, DHDP generated from ASA and pyruvate, 100 mM HEPES pH 7.5, 25 °C, varied: cofactor. It is filed as biochemical, Paenisporosarcina sp. TG-14.

Substrate in series [9]: O=C(O)C1=N[C@H](C(=O)O)CC=C1
Description: purified protein. The series is classed as biochemical, Paenisporosarcina sp. TG-14. The note with it: ASA (L-aspartate-semialdehyde) concentration varied and printed as the substrate, ASA fully converted to DHDP by PaDHDPS with 1 mM pyruvate, NADPH, 100 mM HEPES pH 7.5, 25 °C.

T2 sequence (A0A3B6UER2 entry or part of it K37A): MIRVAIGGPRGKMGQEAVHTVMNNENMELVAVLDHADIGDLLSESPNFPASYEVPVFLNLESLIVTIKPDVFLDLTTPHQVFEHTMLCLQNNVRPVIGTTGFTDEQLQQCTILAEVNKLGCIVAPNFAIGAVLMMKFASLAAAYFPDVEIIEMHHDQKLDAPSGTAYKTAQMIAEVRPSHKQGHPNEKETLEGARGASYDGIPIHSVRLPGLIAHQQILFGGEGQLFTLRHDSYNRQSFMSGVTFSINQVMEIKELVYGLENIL
T3 sequence (A0A3B6UER2 entry or part of it H36A): as the sequence (A0A3B6UER2 entry or part of it K37A) above, with H35A, A36K counted along it

Turning to `NC(=O)C1=CN([C@@H]2O[C@H](COP(=O)(O)OP(=O)(O)OC[C@H]3O[C@@H](n4cnc5c(N)ncnc54)[C@H](OP(=O)(O)O)[C@@H]3O)[C@@H](O)[C@H]2O)C=CC1` [NADPH], the results for the Kd in series [1] and in series [2] were 37 µM and 236 µM, respectively. In series [3], the no binding detected result is reported as “H35A mutation induced complete loss of binding affinity”.

Take `NC(=O)C1=CN([C@@H]2O[C@H](COP(=O)(O)OP(=O)(O)OC[C@H]3O[C@@H](n4cnc5c(N)ncnc54)[C@H](O)[C@@H]3O)[C@@H](O)[C@H]2O)C=CC1` [NADH]: in series [4], the no binding detected entry is listed as “NADH did not bind to PaDHDPR”.

“Dihydrodipicolinate reductase from Paenisporosarcina sp. TG-14 (enzyme)”: the stoichiometry N in series [5] was found to be 4.

For `O=C(O)c1cccc(C(=O)O)n1` [DPA], in series [6], the “X-ray crystallography, co-crystals, 1.8 Å (binary) and 2.1 Å (with NADPH)” value is given as “Electron density corresponding to DPA was observed in the substrate-binding site of the C-terminal domain”.

B1: PaDHDPR (Paenisporosarcina sp. TG-14) (protein)
chain: MIRVAIGGPRGKMGQEAVHTVMNNENMELVAVLDHKDIGDLLSESPNFPASYEVPVFLNLESLIVTIKPDVFLDLTTPHQVFEHTMLCLQNNVRPVIGTTGFTDEQLQQCTILAEVNKLGCIVAPNFAIGAVLMMKFASLAAAYFPDVEIIEMHHDQKLDAPSGTAYKTAQMIAEVRPSHKQGHPNEKETLEGARGASYDGIPIHSVRLPGLIAHQQILFGGEGQLFTLRHDSYNRQSFMSGVTFSINQVMEIKELVYGLENIL
notes: full length, residues 1-264; pET-28a N-terminal His tag removed by thrombin; expressed in E. coli BL21(DE3); homotetramer
For the molecule B1, the Km worked out at 22 ± 1.4 µM in series [7], 43 ± 8.9 µM in [8] and 12 ± 1.6 µM in series [9]. In addition, the results for the kcat in series [7], in series [8] and in [9] were 55 ± 1.2 s⁻¹, 7.1 ± 0.1 s⁻¹ and 52 ± 1.1 s⁻¹, respectively.

The record behind these values is paper PMC5962572, “Crystal structure of dihydrodipicolinate reductase (PaDHDPR) from Paenisporosarcina sp. TG-14: structural basis for NADPH preference as a cofactor” (Scientific Reports, 2018).
